Source: the supplement of paper PMC10567573

B1: VPS39 (parent)
chain: ITEEKVCMVCKKKIGNSAFARYPN
B2: CLCN6 (parent)
chain: ILRSQLVTLLVRGVCYSESQSSAS

Variants of: B1
Test: protein stability index of a GFP-peptide fusion (GPS, HEK-293T) (PSI 1-6); higher = more stable
Settings: c terminus: a fixed tail appended
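Note: lentivirally expressed fusions sorted by FACS into six bins by GFP to DsRed ratio, PSI derived from sequencing read proportions per bin multiplied by bin number.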

Protein stability index: each site, then its substitutions
T2: R 2.55; F 2.9; W 1.77; P 2.53; N 2.79; Y 2.34; D 2.92; V 2.67; M 2.02; A 2.94; Q 3.19; L 3.59; S 2.27; E 2.72; C 2.32; H 3.16; I 2.43; G 2.15; K 2.42
E3: W 1.96; Q 2.53; R 3.83; L 1.91; N 1.84; M 1.39; P 2.25; I 3; C 1.26; S 1.97; K 1.44; F 1.51; H 1.94; G 2.13; V 1.82; T 1.97; A 1.97; D 2.55
I1: W 2.33; Q 2.91; P 2.35; E 3.18; H 2.59; A 2.97; N 2.78; T 2.88; M 2.2; L 2.5; D 3.39; V 2.95; G 3.1; F 2.67; Y 2.49; R 2.13; K 2.6; C 2.24; S 2.59

Variants of: B2
Test: as above
Settings: c terminus: a fixed tail appended

Protein stability index, by site and new letter:
R12: K 3.37; P 2.67; A 2.38; S 3.78; I 2.68; T 2.56; N 1.67; W 2.29; V 3.56; H 4.29; D 2; L 3.03
S21: Y 2.89; M 2.12; W 3.14; A 3.29; P 1.34; L 2.14; I 2.59; K 2.66; F 2.54; N 2.81; E 4.5
S19: Y 2.44; P 1.82; W 2.92; M 3.15; A 4.08; C 3.23; H 3.62; D 2.21; T 4.83; G 1.57; L 3.29; F 3.38; Q 1.79
S17: I 3.39; F 2.25; Y 2.78; Q 1.98; T 2.24; G 2.54; H 3; A 2.45; K 2.16; L 4.34; R 2.36; E 2.11; N 3.71; P 2.5; D 2.43
C15: N 1.57; D 1.89; I 3.23; P 2.23; V 5.04; H 1.73; F 4.46; R 3.44; K 1.13; Y 4.15; A 3.2; G 3.11
L10: K 2.05; Q 1.72; C 2.21; P 2.52; W 3.87; T 2.46; A 1.07; V 1.92; I 2.14; E 2.53; G 1.92; H 2.07; M 2.93; D 1.8; N 2.49; R 2.14; Y 2.23; S 1.31
G13: H 3.18; V 3.06; F 4.5; W 1.7; R 3.25; E 1.72; L 2.53; I 2.7; P 2.69; D 3.12; N 3.53; S 2.89; Q 3.06
L9: N 1.59; T 2.92; W 2.83; E 1.94; P 2.21; F 4.09; K 1.99; M 2.5; D 1.77; G 1.8; R 1.6; C 3.61; H 1.39; S 1.6; A 3.4; Q 1.69
Y16: D 2.09; I 2.94; P 3.6; S 2.22; T 3.87; E 1.94; A 3.1; R 3.34; C 2.31; N 2.37; H 2.77; L 3.45; W 2.61; K 1.32; V 2.94
A23: P 3.09; Y 3; E 2.41; H 2.38; F 3.27; S 2.38; C 2.96; T 2; K 2.29; D 4.03; I 4.16; V 1.81; M 2.75; Q 3.96; W 4.14; N 4.11
S24: G 3.21; K 2.49; F 3.24; M 4.04; V 2.87; N 2.4; R 2.78; T 2.7; Q 1.85; P 3.9; W 2.9; D 2.68
T8: K 2.88; E 3.03; Y 2.21; W 2.28; P 2.12; S 2.29; G 2.01; C 3.51; V 2.62; H 2.18; L 1.83; R 2.81; M 2.8; N 2.15
V11: Y 2.19; R 2.01; C 2.1; K 2; E 1.54; P 2.1; Q 2; L 4.2; H 2.78; T 2.8; A 2.77; W 2.92; M 3.46; G 2.39; S 1.78; D 2.02; N 3.1
Q20: F 2.4; C 4.15; L 2.77; V 2.68; A 4.07; D 1.56; H 2.27; T 1.8; K 4.02; I 1.93; E 3.06; Y 3.72; W 2.38; G 3.74
L6: Y 2.02; K 2.08; T 2; N 1.76; E 1.88; V 1.64; C 3.02; P 2.04; S 1.42; M 1.98; G 2.86; D 1.55; F 2.41; I 2.86; R 2.67; A 2.2; H 2.17; W 3.18; Q 1.66
E18: G 3.04; T 4.5; R 2.1; N 3.67; A 2.15; H 2.13; M 2.09; W 2.86; I 3.81; K 5.27; F 5.28; P 3.08; Q 2.09; L 2.71; Y 2.54; D 2.19
V7: E 2.37; K 2.23; A 2.81; Y 3.04; L 3.31; C 2.66; T 2.46; W 1.96; H 2.63; R 2.57; N 1.99; I 2.83; G 1.75; S 2.18; M 2.25; Q 2.43; D 2.45; P 1.98
V14: G 2.1; N 1.57; W 2.82; E 1.47; H 2.01; Q 3.26; R 2.67; T 3.29; M 1.59; K 2.87; F 2.46; I 2.79; S 2.76
S22: I 2.29; K 3.18; F 4.37; V 2.66; T 2.11; Y 3.28; Q 3.86; A 1.76; H 3.54; D 1.44; R 3.39; P 2.17; M 3.01; N 1.92
